The numbers were not newly measured in publication PMC5321513, which cites them from elsewhere.

For orientation: Kd means the equilibrium constant for the complex coming apart.

The target of one data set is 14-3-3ζ (Homo sapiens) (UniProt P63104).
A further data set has as its target 14-3-3σ (Homo sapiens) (UniProt P31947).

Sequence of 14-3-3σ (Homo sapiens) (P31947 whole entry): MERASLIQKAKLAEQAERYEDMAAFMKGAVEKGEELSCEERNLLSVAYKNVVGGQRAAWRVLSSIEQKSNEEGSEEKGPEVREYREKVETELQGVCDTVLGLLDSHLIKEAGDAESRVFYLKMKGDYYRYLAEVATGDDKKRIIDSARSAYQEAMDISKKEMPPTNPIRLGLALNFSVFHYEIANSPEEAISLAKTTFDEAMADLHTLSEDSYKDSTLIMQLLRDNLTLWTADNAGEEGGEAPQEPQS
Sequence of 14-3-3ζ (Homo sapiens) (P63104 whole entry): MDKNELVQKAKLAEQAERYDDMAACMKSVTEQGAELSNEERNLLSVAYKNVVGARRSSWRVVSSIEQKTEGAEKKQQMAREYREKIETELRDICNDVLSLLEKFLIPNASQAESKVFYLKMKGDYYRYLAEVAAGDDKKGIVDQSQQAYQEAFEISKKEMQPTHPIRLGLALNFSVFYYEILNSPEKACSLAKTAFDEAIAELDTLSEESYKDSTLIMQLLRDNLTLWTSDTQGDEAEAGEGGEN

For “C-RAF phosphopeptide (from UniProt P04049)”, the dissociation constant Kd with 14-3-3ζ (Homo sapiens) was 16.7 µM. “p53 phosphopeptide (from UniProt P04637)”: the Kd with 14-3-3σ (Homo sapiens) is 16.3 µM.
